Ends that are not written are not given here.
Assays:
[1] = biological target: T1, neuropilin-1 by forced expression in M21 cells (transfected neuropilin-1 cDNA) (UniProt O14786 22-923, limits assumed); assay: cell-based or functional assay
[2] = biological target: T1, neuropilin-1 by forced expression in …; assay: phage binding to M21 cells transfected with neuropilin-1 cDNA against vector alone or untransfected cells, phage titration
Experimental: Suspended cells (10⁶ cells in DMEM containing 1% BSA) were incubated with 10⁸ pfu/ml of T7 phage for 1 hr at 4° C. The cells were washed 4 times with the binding buffer, lysed with lysogeny broth containing 1% NP-40, and titrated. Phage internalization assays used the same procedure, except that the cells were incubated with phage at 37° C., and that an acidic buffer (500 mM sodium chloride, 0.1 M glycine, 1% BSA, pH 2.5) was substituted for the binding buffer in the second wash. Inhibitors of binding and internalization were added 20 min prior to incubation with phage. […] Free synthetic peptides, mouse antibodies against human α1, α2, αvβ3, αvβ5, α5β1, α4, or αv integrins and integrin subunits (Chemicon), goat anti-rat neuropilin-1 (R&D Systems, Minneapolis, Minn.), with mouse and a goat IgG isotype controls (Abcam) were also tested.

T1 sequence (O14786 22-923 limits assumed): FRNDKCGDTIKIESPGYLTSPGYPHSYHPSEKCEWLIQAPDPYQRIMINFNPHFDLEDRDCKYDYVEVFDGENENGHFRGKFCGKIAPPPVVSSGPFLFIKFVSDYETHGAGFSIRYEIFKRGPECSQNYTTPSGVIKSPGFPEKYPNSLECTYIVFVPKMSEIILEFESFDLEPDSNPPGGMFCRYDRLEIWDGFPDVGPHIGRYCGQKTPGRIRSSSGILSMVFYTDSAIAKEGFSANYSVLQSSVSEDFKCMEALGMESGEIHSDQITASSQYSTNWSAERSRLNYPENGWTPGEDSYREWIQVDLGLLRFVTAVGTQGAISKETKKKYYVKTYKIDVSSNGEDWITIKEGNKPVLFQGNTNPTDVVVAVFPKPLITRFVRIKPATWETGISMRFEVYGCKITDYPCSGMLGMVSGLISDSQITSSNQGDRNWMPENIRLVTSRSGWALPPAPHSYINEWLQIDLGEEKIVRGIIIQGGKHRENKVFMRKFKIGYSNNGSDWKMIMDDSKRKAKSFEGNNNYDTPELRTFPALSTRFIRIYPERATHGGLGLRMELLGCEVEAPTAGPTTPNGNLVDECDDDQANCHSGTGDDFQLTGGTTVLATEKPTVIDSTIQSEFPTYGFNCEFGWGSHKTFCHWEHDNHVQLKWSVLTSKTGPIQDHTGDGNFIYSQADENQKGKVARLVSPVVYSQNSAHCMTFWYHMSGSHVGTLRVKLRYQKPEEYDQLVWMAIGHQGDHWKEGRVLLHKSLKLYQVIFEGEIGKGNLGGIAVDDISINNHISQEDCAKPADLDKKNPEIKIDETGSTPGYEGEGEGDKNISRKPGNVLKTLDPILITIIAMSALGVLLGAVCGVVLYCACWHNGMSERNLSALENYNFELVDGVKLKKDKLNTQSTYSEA

B1: CRGDK phage (T7 phage displaying CRGDK) (peptide)
peptide: CRGDK
modifications: also: displayed on T7 phage
notes: CRGDK is the N-terminal proteolytic fragment of iRGD; also called CRGDK fragment; FAM-CRGDK
internalization of CRGDK phage into M21 cells [1]: 3.5 fold
fold increase of binding on forced expression of neuropilin-1 in M21 cells [2]: 3.5 fold
